Experimental findings from paper PMC9020740 are described below.

The first experiment deals with NS2-EGFP (canine parvovirus nonstructural protein 2 fused to EGFP) (canine parvovirus (CPV) type 2). Description: proximity ligation; PLA (Duolink In Situ Orange Mouse/Rabbit) in noninfected HeLa cells transfected with NS2-EGFP, fixed 20 h after transfection; anti-GFP paired with an antibody against the host protein; nuclear PLA foci counted from 3D confocal data, n = 15.
“core histone macro-H2A.1 (from UniProt O75367 1-369) (natural protein)” displayed a PLA foci/nucleus (PLA foci/nucleus) of 135.

Turning to “nucleosome-remodeling helicase matrix-associated actin-dependent regulator of chromatin A5 (from UniProt O60264 1-1052) (natural protein)”, the PLA foci/nucleus (PLA foci/nucleus) is 55.

“structure specific recognition protein SSRP1 (FACT complex subunit) (from UniProt Q08945 1-709) (natural protein)” returned a PLA foci/nucleus (PLA foci/nucleus) of 7.5.

Another experiment deals with Canine parvovirus nonstructural protein 2 (NS2), made in infection (canine parvovirus (CPV) type 2). Description: proximity ligation; PLA (Duolink In Situ Orange Mouse/Rabbit) in wt CPV-infected NLFK cells, fixed 24 h after infection; anti-NS2 antibody paired with an antibody against the host protein; nuclear PLA foci counted from 3D confocal data, n = 15.
“MDC1 of NLFK (feline kidney) cells (natural protein)” registered a PLA foci/nucleus (PLA foci/nucleus) of 22.

On to “SMARCA5 of NLFK (feline kidney) cells (natural protein)”, for which the PLA foci/nucleus (PLA foci/nucleus) came out at 6.5.

Regarding “SSRP1 of NLFK (feline kidney) cells (natural protein)”, the PLA foci/nucleus (PLA foci/nucleus) was found to be 3.7.

For “macro-H2A.1 of NLFK (feline kidney) cells (natural protein)”, the PLA foci/nucleus (PLA foci/nucleus) turned out to be 40.
